What follows are binders tested against T1, ヒト血清アルブミン (human, UniProt P02768 25-609) (assay: SPR (Biacore T200), HSA amine-coupled on CM5 chip, VHH as analyte).
T1 construct: also called HSA; HSA
T1 sequence (P02768 25-609 limits assumed): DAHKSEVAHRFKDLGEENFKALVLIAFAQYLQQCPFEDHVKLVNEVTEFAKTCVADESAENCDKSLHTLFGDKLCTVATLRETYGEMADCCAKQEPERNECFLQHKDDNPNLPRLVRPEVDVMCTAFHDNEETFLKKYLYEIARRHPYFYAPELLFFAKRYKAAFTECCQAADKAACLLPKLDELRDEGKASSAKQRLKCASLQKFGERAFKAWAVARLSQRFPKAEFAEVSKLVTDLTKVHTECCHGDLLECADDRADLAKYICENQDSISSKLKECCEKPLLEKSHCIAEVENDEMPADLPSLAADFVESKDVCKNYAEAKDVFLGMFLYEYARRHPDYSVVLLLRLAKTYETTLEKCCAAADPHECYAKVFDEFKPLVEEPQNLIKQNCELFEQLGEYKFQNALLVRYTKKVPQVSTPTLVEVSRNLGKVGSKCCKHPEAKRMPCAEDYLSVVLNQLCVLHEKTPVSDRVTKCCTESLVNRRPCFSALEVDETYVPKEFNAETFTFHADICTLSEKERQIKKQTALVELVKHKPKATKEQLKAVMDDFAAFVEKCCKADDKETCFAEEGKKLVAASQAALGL

Row | Kd [nM] | Binder
1 | 0.077 | 配列番号:40により表されるアミノ酸配列を含む抗HSA抗体 (VHH, Expressed in E. coli from pRA2(+); also called H32A; H32A; not shown: C-terminal His tag from vector pRA2(+) (Ni-NTA purification, anti-His detection)) VHH: QVQLVESGGGLVQAGKSLRLSCTASGSIPSIGVTGWHRQAPGKQRELVATISQGGHINYFESVKGRFTISRDNAKNTVYLQMNSLKPEDTGVYYCNAFWLPLRLNDYWGQGTQVTVSS
2 | 124 | 配列番号:38により表されるアミノ酸配列を含む抗HSA抗体 (VHH, Expressed in E. coli from pRA2(+); also called H10A; H10A; not shown: C-terminal His tag from vector pRA2(+) (Ni-NTA purification, anti-His detection)) VHH: QVQLVESGGGLVQTGGSLRLSCAASGRIVTVAAMGWFRQAPGKEREFVASISWSGRSRSYADSVKGRFTISRDNAKNTAYLQMSSLKPEDTGVYYCALGGNSYSSDYARYDYWGQGTQVTVSS
3 | 22.9 | 配列番号:36により表されるアミノ酸配列を含む抗HSA抗体 (VHH, Expressed in E. coli BL21(DE3) pLysS from pRA2(+) behind a vector-encoded leader; also called H01A; H01A; not shown: C-terminal His tag from vector pRA2(+) (Ni-NTA purification, anti-His detection)) VHH: EVQLVESGGGFVQPGGSLRLSCVASGFTFERFDMGWVRQAPGKSLEWVSRFNSDDGRKSYADSVKGRFAISRDNAENTLYLQMNNLIPEDTAMYYCVKCQAYTSCTDAEDRGQGTQVTVSS
4 | 62.2 | 配列番号:37により表されるアミノ酸配列を含む抗HSA抗体 (VHH, Expressed in E. coli from pRA2(+); also called H08A; H08A; not shown: C-terminal His tag from vector pRA2(+) (Ni-NTA purification, anti-His detection)) VHH: EVQLVESGGGLVHPGGSLRLSCVASGSDVSSDTMGWFRRAPGKQRELVAAIAWGGSTHYAESVKGRFTISRDNAKNTVYLQLSNLKPEDTAVYLCNTRNYWGQGTQVTVSS
5 | 296 | 配列番号:39により表されるアミノ酸配列を含む抗HSA抗体 (VHH, Expressed in E. coli from pRA2(+); also called H14A; H14A; not shown: C-terminal His tag from vector pRA2(+) (Ni-NTA purification, anti-His detection)) VHH: QLQLVESGGGLVQAGGSLRLSCAASGRTFRFSAMGWFRQAPGKEREFAAAISWTGGTTAYAESVKGRFIISRDNAKNTVYLQMNSLKPEDTAVYYCAAGPIPSPASRYDDWGQGTQVTVSS
